In patent US20220251174A1 (published 2022) one finds Kd data, which are given here for one molecule.

The test addresses SARS-CoV-2 Spike S2-hFc (SARS-CoV-2, UniProt P0DTC2 686-1213). The test is described as follows: Octet BLI; Fab analyte over S2-hFc on AHC sensors; steady-state analysis. For orientation: In BLI a coated tip is dipped into the sample, and binding shifts an interference pattern.

Procedure: All label-free interaction analysis was performed on an Octet HTX biolayer interferometry-based detection system (ForteBio/Sartorius, Göttingen, Germany) equipped with various sensor types; AR (amine-reactive), SAX (streptavidin-coated), or AHC (anti-human-Fc capture) sensors. Experiments were conducted at 25° C. in a run buffer of PBS containing 0.05% Tween™-20 and 0.5 mg/mL BSA.
Binding affinity estimates. Different assay formats were used to estimate the binding affinities of Ab/target bimolecular interactions. In one assay format, Fab was titrated as monovalent analyte (typically as a 3-fold series with a top concentration of 3 μM, and at least one concentration in duplicate) over AHC sensors coated with human-Fc-fused targets RBD-hFc, S1-hFc or S2-hFc as ligands (Sino Biological). […] Global affinity estimates were determined using the Kinetics module of Fortebio's Data Analysis HT software version 12.0.1.55. Data were processed by subtracting the responses of a buffer analyte sample and fitting these referenced data globally to a simple 1:1 Langmuir binding model to deduce the KD value from the ratio of the kinetic rate constants (KD=kd/kₐ), where kd and kₐ are the dissociation and association rate constants, respectively. […] All samples were measured on duplicate sensors.

B1: 2-A6 Fab (Fab, V domains shown)
VH: QVTLRESGPALVKPTQTLTLTCTFSGFSLNTRGMSVSWIRQPPGKALEWLALIDWEDDKFYRTSLMTRLTISKDIFKNQVVLTMTNVDPVDTGTYYCARTYSVGVKYFGMDVWGQGTTVTVSS
VL: SSELTQDPAVSVALGQTVRITCQGDSLRNYYASWYRQEPGQAPILLIYGGNYRPSGIPDRFSGSSSGNTASLTITGAQAEDEADYYCNSRDSSGNHVVFGGGTKLTVL
A word on the Kd: it is the equilibrium constant for the complex coming apart. A higher Kd goes with a looser complex. Molecule B1 returned a Kd of 913 nM.
